As usually defined, the stoichiometry N is the number of molecules, sites or subunits per partner or assembly. In general, Kd refers to the concentration at which binding is half-saturated.

Positions count from the first letter of the chain named.

The values below come from PMC4564277, “Biochemical and Structural Insights into the Mechanism of DNA Recognition by Arabidopsis [sequence] INSENSITIVE3” (PLoS ONE, 2015).

The target of data set [1] is T1, EIN3 82-352 (optimal DBD) (Arabidopsis thaliana, UniProt O24606 82-352).
T1 sequence: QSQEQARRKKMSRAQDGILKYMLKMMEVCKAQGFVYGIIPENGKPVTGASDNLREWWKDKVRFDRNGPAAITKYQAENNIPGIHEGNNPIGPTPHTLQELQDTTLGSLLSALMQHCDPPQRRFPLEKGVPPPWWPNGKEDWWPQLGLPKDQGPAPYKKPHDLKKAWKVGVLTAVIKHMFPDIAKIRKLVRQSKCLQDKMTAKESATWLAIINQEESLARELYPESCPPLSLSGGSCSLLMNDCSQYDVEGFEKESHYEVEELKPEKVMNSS
The data set can be described thus: EMSA; EMSA: 1 nM biotin probe, 10 mM Tris-HCl pH 7.5, 40 mM KCl, 3 mM MgCl2, 1 mM EDTA, 10% glycerol, 1 mM DTT, 1 ug poly(dI-dC) in 20 uL, room temperature, 30 min. The note with it: protein: recombinant, tags: N-terminal His6 (pET-28a), chain copies: 2. (In general: A gel shift assay detects complexes by their altered migration in electrophoresis.)

Data set [2] has as its target T1, EIN3 82-352 (optimal DBD). The experiment in a line: EMSA; tighter than ERF1; EMSA: 1 nM biotin probe, 10 mM Tris-HCl pH 7.5, 40 mM KCl, 3 mM MgCl2, 1 mM EDTA, 10% glycerol, 1 mM DTT, 1 ug poly(dI-dC) in 20 uL, room temperature, 30 min. The note with it: protein: recombinant; tags: N-terminal His6 (pET-28a); chain copies: 2; label: 3' biotin on forward strand; blunt.

Data set [3] addresses T1, EIN3 82-352 (optimal DBD). The data set can be described thus: EMSA; EMSA: 1 nM biotin probe, 10 mM Tris-HCl pH 7.5, 40 mM KCl, 3 mM MgCl2, 1 mM EDTA, 10% glycerol, 1 mM DTT, 1 ug poly(dI-dC) in 20 uL, room temperature, 30 min. The note with it: protein: recombinant; tags: N-terminal His6 (pET-28a); chain copies: 2; label: 3' biotin on forward strand; blunt.
Data set [4] concerns the molecule itself. The data set can be described thus: SEC-MALS; Superdex 200 analytical column, 1 ml/min, 10 mM Tris–HCl pH 7.5, 100 mM NaCl, 1 mM DTT, 4°C; no DNA.
Data set [5] concerns the target T2, EIN3 68-352 (Arabidopsis thaliana, UniProt O24606 68-352).
T2 sequence: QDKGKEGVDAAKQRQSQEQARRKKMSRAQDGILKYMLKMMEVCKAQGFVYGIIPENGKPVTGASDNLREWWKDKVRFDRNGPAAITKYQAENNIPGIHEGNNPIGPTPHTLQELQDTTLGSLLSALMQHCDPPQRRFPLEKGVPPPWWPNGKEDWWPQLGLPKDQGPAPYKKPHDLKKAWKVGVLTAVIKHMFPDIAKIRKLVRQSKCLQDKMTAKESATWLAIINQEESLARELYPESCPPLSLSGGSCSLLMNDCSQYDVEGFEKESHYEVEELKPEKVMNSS
The experiment in a line: EMSA; EMSA: 1 nM biotin probe, 10 mM Tris-HCl pH 7.5, 40 mM KCl, 3 mM MgCl2, 1 mM EDTA, 10% glycerol, 1 mM DTT, 1 ug poly(dI-dC) in 20 uL, room temperature, 30 min. The note with it: protein: recombinant; tags: N-terminal His6 (pET-28a); chain copies: 2; label: 3' biotin on forward strand; blunt.

Data set [6] concerns the target T3, EIN3 91-352 (Arabidopsis thaliana, UniProt O24606 91-352).
T3 sequence: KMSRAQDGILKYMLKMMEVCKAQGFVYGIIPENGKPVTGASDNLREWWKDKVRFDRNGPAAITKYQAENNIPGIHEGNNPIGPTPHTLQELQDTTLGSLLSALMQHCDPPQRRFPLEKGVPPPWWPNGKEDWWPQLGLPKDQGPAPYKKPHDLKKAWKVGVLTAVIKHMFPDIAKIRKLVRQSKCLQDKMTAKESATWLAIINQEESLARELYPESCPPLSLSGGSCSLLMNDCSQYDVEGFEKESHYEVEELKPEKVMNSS
Described as above. The note with it: protein: recombinant; tags: N-terminal His6 (pET-28a); chain copies: 2; label: 3' biotin on forward strand; blunt.

Data set [7] addresses T4, EIN3 98-352 (Arabidopsis thaliana, UniProt O24606 98-352).
T4 sequence: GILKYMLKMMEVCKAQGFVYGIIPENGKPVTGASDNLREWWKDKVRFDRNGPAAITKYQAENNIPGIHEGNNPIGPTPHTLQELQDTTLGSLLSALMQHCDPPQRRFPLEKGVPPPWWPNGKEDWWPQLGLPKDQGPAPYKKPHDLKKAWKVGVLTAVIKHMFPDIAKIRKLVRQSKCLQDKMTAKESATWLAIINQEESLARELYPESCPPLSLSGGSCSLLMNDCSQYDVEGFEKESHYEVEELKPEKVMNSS
Described as above. The following applies: protein: recombinant; tags: N-terminal His6 (pET-28a); chain copies: 2; label: 3' biotin on forward strand; blunt.

Data set [8] has as its target T5, EIN3 82-352 P216S (Arabidopsis thaliana, UniProt O24606 82-352, P216S).
T5 sequence: T1 sequence with P135S
The description is as above. The note with it: protein: recombinant; tags: N-terminal His6 (pET-28a); chain copies: 2; label: 3' biotin on forward strand; blunt.

The target of data set [9] is T6, EIN3 1-352 (Arabidopsis thaliana, UniProt O24606 1-352).
T6 sequence: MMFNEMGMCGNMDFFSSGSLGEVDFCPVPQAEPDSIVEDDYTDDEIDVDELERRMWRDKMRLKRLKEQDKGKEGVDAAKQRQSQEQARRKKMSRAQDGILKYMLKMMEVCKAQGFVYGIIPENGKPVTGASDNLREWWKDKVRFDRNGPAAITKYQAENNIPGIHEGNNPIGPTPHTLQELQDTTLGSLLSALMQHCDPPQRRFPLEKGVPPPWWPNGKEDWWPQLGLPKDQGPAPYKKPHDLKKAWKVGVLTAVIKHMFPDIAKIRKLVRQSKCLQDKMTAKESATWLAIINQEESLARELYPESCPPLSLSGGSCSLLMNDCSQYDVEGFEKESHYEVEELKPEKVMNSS
The description is as above. The note with it: protein: recombinant; tags: N-terminal His6 (pET-28a); chain copies: 2; label: 3' biotin on forward strand; blunt.

The mark [10] stands for this setting: label: 3' biotin on forward strand, blunt.

B1: 2EBS-S10-F (ssDNA)
DNA: AAGATACATGCAAAAAAGCATGTATCTT
With B1, the binding result in data set [1] (label: 3' biotin, single strand) is recorded as “no binding”.

B2: 2EBS-S10-36 (dsDNA)
DNA 1: TGAAGATACATGCAATTAAGCATGTATCTTGAATCC
DNA 2: GGATTCAAGATACATGCTTAATTGCATGTATCTTCA
Take B2: the binding result in data set [2] is “binds”.

B3: 2EBS-S8 (dsDNA)
DNA 1: AAGATACATGCAAAAGCATGTATCTT
DNA 2: AAGATACATGCTTTTGCATGTATCTT
Turning to B3, the binding signal in [3] was ~3 fold higher Kd than 2EBS-S10.

B4: EIN3 82–352 (optimal DNA-binding domain of Arabidopsis ETHYLENE …3) (domain or fragment, UniProt O24606 82-352, looked up)
chain: T1 sequence
notes: numbering based on UniProt O24606; Cloned into NheI/BamHI of pET-28a; Printed predicted Mw: monomer 31.29 kDa, dimer 62.58 kDa; also called optimal DBD; EIN3 truncation 82–352; source: E. coli Transetta (DE3), purified (Ni-NTA, Superdex 75 size exclusion)
Turning to B4, the “stoichiometry N” value in [4] was found to be 2.

B5: 1EBS-S10 (dsDNA)
DNA 1: AAGATACATGCAAAAAAGCGATCGACTT
DNA 2: AAGTCGATCGCTTTTTTGCATGTATCTT
On to B5, for which the Kd in [1] (setting [10]) was roughly 690 nM.

B6: 2EBS-S5 (dsDNA)
DNA 1: AAGATACATGCAGCATGTATCTT
DNA 2: AAGATACATGCTGCATGTATCTT
For the molecule B6, the binding signal in [3] was ~15 fold higher Kd than 2EBS-S10.

B7: 2EBS-S10-2 (dsDNA)
DNA 1: AAGGTACATGCAAAAAAGCATGTACCTT
DNA 2: AAGGTACATGCTTTTTTGCATGTACCTT
On to B7, for which the binding result in data set [1] (setting [10]) is “binds”.

B8: 2EBS-S10-R (dsDNA)
DNA 1: AAGATGTATGCAAAAAAGCATACATCTT
DNA 2: AAGATGTATGCTTTTTTGCATACATCTT
As for B8, the Kd in data set [1] (setting [10]) is roughly 1240 nM.

B9: 0EBS-S10 (dsDNA)
DNA 1: AAGTCGATCGCAAAAAAGCGATCGACTT
DNA 2: AAGTCGATCGCTTTTTTGCGATCGACTT
As for B9, the Kd in data set [1] (setting [10]) is roughly 2280 nM.

B10: 2EBS-S10 (dsDNA)
DNA 1: AAGATACATGCAAAAAAGCATGTATCTT
DNA 2: AAGATACATGCTTTTTTGCATGTATCTT
Regarding B10, the Kd in data set [1] (setting [10]) was roughly 110 nM.

B11: ERF1 (dsDNA)
DNA 1: GTTGTTTGGGATTCAAGGGGCATGTATCTTGAATCC
DNA 2: GGATTCAAGATACATGCCCCTTGAATCCCAAACAAC
Turning to B11, the binding result in data set [5], in [6], in data set [7], in data set [1] (setting [10]), in data set [8] and in data set [9] was “binds” in each case.
